Data from patent US20070292434A1 (VIB VZW, published 2007).

Experiments:
[1] = target: the molecule itself; test: non-reducing anti-FLAG Western blot of COS-1 lysates (self-association)
Text: Panel A: Plasmids encoding (1) mLR ΔCRH1, ΔIg, ΔCRH2; (2) mLR ΔCRH1, ΔIg, ΔCRH2 cys672ser; (3) mLR ΔCRH1, ΔIg, ΔCRH2 cys751ser; (4) mLR ΔCRH1, ΔIg, ΔCRH2 cys672,751ser were transiently transfected in COS-1 cells. Transfected cells were lyzed in a reducing (R) or non-reducing (NR) loading buffer. Lysates were loaded on a SDS-PAGE gel, blotted to a nitro-cellulose membrane and subjected to Western blot with an anti-FLAG antibody.

[2] = target: the molecule itself; test: non-reducing anti-FLAG Western blot of COS-1 supernatant (self-association)
Text: Panel A: The plasmid encoding FNIII-FLAG-His was transfected in COS-1 cells. Supernatant was subjected to Western blot analysis under reducing (R) or non-reducing (NR) conditions with an anti-FLAG antibody.
Panel A: Plasmid pMET7 CRH2-FLAG-His was transiently transfected in COS-1 cells. Supernatant was subjected to Western blot analysis with an anti-FLAG antibody under reducing (R) and non-reducing (NR) conditions.
We next analyzed the ligand-independent clustering of the FNIII domains in more detail. Constructs were generated to produce secreted forms of the FNIII domains, either as a FLAG-His-, or as a SEAP-FLAG-tagged protein. When FNIII-FLAG-His was expressed in COS-1 cells and analyzed under non-reducing conditions, di-, tri- and even higher order clusters were observed (FIG. 2, panel A). This clustering is independent of protein concentration since transfection with smaller amounts of expression vector gave the same clustering pattern. To confirm this FNIII-clustering, we set up a His/SEAP co-precipitation experiment. In this assay, FNIII-SEAP-FLAG proteins were co-expressed with FNIII-FLAG-His, or with empty vector as a negative control. Supernatants were analyzed in a precipitation experiment with a Ni²⁺ affinity resin. Co-precipitated SEAP activity reflects interaction between the proteins. FIG. 2, panel B clearly confirms homotypic interaction of the FNIII domain.

[3] = target: the molecule itself; test: non-reducing anti-FLAG Western blot of secreted protein (self-association)

Row | Protein | binding result [1] | binding result [2] | binding result [3]
1 | mLR ΔCRH1, ΔIg, ΔCRH2 cys751ser (receptor, murine, UniProt P48356 637-1162, looked up, not shown: small tags and cut ends, domain: FNIII, transmembrane and cytoplasmic domains (CRH1, Ig and CRH2 deleted); also called single cys751ser mutant receptor) PMRGPEFWRKMDGDVTKKERNVTLLWKPLTKNDSLCSVRRYVVKHRTAHNGTWSEDVGNRTNLTFLWTEPAHTVTVLAVNSLGASLVNFNLTFSWPMSKVSAVESLSAYPLSSSSVILSWTLSPDDYSLLYLVIEWKILNEDDGMKWLRIPSNVKKFYIHDNFIPIEKYQFSLYPVFMEGVGKPKIINGFTKDAIDKQQNDAGLYVIVPIIISSCVLLLGTLLISHQRMKKLFWDDVPNPKNCSWAQGLNFQKPETFEHLFTKHAESVIFGPLLLEPEPISEEISVDTAWKNKDEMVPAAMVSLLLTTPDPESSSICISDQCNSANFSGSQSTQVTCEDECQRQPSVKYATLVSNDKLVETDEEQGFIHSPVSNCISSNHSPLRQSFSSSSWETEAQTFFLLSDQQPTMISPQLSFSGLDELLELEGSFPEENHREKSVCYLGVTSVNRRESGVLLTGEAGILCTFPAQCLFSDIRILQERCSHFVENNLSLGTSGENFVPYMPQFQTCSTHSHKIMENKMCDLTV | binds |  | 
2 | mLR ΔCRH1, ΔIg, ΔCRH2 cys672ser (receptor, murine, UniProt P48356 637-1162, looked up, not shown: small tags and cut ends, domain: FNIII, transmembrane and cytoplasmic domains (CRH1, Ig and CRH2 deleted)) PMRGPEFWRKMDGDVTKKERNVTLLWKPLTKNDSLSSVRRYVVKHRTAHNGTWSEDVGNRTNLTFLWTEPAHTVTVLAVNSLGASLVNFNLTFSWPMSKVSAVESLSAYPLSSSCVILSWTLSPDDYSLLYLVIEWKILNEDDGMKWLRIPSNVKKFYIHDNFIPIEKYQFSLYPVFMEGVGKPKIINGFTKDAIDKQQNDAGLYVIVPIIISSCVLLLGTLLISHQRMKKLFWDDVPNPKNCSWAQGLNFQKPETFEHLFTKHAESVIFGPLLLEPEPISEEISVDTAWKNKDEMVPAAMVSLLLTTPDPESSSICISDQCNSANFSGSQSTQVTCEDECQRQPSVKYATLVSNDKLVETDEEQGFIHSPVSNCISSNHSPLRQSFSSSSWETEAQTFFLLSDQQPTMISPQLSFSGLDELLELEGSFPEENHREKSVCYLGVTSVNRRESGVLLTGEAGILCTFPAQCLFSDIRILQERCSHFVENNLSLGTSGENFVPYMPQFQTCSTHSHKIMENKMCDLTV | binds |  | 
3 | CRH2-FLAG-His (receptor, murine, UniProt P48356 428-635, looked up, not shown: small tags and cut ends, domain: CRH2; Expressed as a reduction-sensitive oligomeric complex; also called mLR CRH2-FLAG-His; soluble CRH2 domain) VNINISCETDGYLTKMTCRWSPSTIQSLVGSTVQLRYHRRSLYCPDSPSIHPTSEPKNCVLQRDGFYECVFQPIFLLSGYTMWIRINHSLGSLDSPPTCVLPDSVVKPLPPSNVKAEITVNTGLLKVSWEKPVFPENNLQFQIRYGLSGKEIQWKTHEVFDAKSKSASLLVSDLCAVYVVQVRCRRLDGLGYWSNWSSPAYTLVMDVK |  | binds | 
4 | FNIII-FLAG-His (receptor, murine, UniProt P48356 637-839, looked up, not shown: small tags and cut ends, domain: FNIII domains; Secreted from COS-1 or Hek293T cells; runs as di-, tri- and higher order disulphide-linked clusters under non-reducing conditions; also called mLR FNIII-FLAG-His; soluble FNIII domains) PMRGPEFWRKMDGDVTKKERNVTLLWKPLTKNDSLCSVRRYVVKHRTAHNGTWSEDVGNRTNLTFLWTEPAHTVTVLAVNSLGASLVNFNLTFSWPMSKVSAVESLSAYPLSSSCVILSWTLSPDDYSLLYLVIEWKILNEDDGMKWLRIPSNVKKFYIHDNFIPIEKYQFSLYPVFMEGVGKPKIINGFTKDAIDKQQNDAG |  | binds | 
5 | FNIII-FLAG-His cys672ser (receptor, murine, UniProt P48356 637-839, looked up, not shown: small tags and cut ends, domain: FNIII domains) PMRGPEFWRKMDGDVTKKERNVTLLWKPLTKNDSLSSVRRYVVKHRTAHNGTWSEDVGNRTNLTFLWTEPAHTVTVLAVNSLGASLVNFNLTFSWPMSKVSAVESLSAYPLSSSCVILSWTLSPDDYSLLYLVIEWKILNEDDGMKWLRIPSNVKKFYIHDNFIPIEKYQFSLYPVFMEGVGKPKIINGFTKDAIDKQQNDAG |  |  | binds
6 | FNIII-FLAG-His cys751ser (receptor, murine, UniProt P48356 637-839, looked up, not shown: small tags and cut ends, domain: FNIII domains) PMRGPEFWRKMDGDVTKKERNVTLLWKPLTKNDSLCSVRRYVVKHRTAHNGTWSEDVGNRTNLTFLWTEPAHTVTVLAVNSLGASLVNFNLTFSWPMSKVSAVESLSAYPLSSSSVILSWTLSPDDYSLLYLVIEWKILNEDDGMKWLRIPSNVKKFYIHDNFIPIEKYQFSLYPVFMEGVGKPKIINGFTKDAIDKQQNDAG |  |  | binds
